To fix the notation:
T1: gephyrin E domain (gephE), recombinant
T1 chain: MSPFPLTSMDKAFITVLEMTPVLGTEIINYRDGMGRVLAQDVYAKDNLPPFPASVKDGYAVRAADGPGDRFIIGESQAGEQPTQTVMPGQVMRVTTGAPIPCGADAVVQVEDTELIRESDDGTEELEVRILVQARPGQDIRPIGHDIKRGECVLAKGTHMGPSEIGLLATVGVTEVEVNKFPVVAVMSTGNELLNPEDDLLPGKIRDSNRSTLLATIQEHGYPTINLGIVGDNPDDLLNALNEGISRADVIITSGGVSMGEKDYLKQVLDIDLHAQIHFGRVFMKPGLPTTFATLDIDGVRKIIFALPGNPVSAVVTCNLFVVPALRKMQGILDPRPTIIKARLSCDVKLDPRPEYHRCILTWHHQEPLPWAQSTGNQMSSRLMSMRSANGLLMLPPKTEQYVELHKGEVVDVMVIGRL

T2: Gephyrin E domain (gephE) (Rattus norvegicus, UniProt Q03555)
T2 chain: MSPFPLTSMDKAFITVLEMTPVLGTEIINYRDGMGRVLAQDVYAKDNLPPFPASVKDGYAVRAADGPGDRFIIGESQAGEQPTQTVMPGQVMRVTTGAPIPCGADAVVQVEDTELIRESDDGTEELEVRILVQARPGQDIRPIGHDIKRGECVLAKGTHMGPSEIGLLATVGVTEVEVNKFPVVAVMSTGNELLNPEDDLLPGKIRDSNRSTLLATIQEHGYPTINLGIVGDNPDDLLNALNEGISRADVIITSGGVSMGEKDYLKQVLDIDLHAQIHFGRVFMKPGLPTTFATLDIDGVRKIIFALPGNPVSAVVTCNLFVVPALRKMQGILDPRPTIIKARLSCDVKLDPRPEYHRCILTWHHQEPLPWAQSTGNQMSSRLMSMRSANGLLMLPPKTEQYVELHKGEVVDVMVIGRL

B1: GlyR β-derived peptide 414DLRSNDFSIVGSLPR428, unmodified, in solution (peptide)
peptide: DLRSNDFSIVGSLPR
modifications: C-terminal amide
B2: GlyRβ_Full_Positional_Scan_156 (peptide)
chain: DLRSNDFTIVGSLPR
B3: GlyRβ_Full_Positional_Scan_166 (peptide)
chain: DLRSNDFSVVGSLPR
B4: GlyRβ_Full_Positional_Scan_183 (peptide)
chain: DLRSNDFSIIGSLPR
B5: GlyRβ_Full_Positional_Scan_128 (peptide)
chain: DLRSNDWSIVGSLPR
B6: GlyRβ_Full_Positional_Scan_178 (peptide)
chain: DLRSNDFSMVGSLPR
B7: GlyRβ_Full_Positional_Scan_164 (peptide)
chain: DLRSNDFSLVGSLPR
B8: GlyRβ_Full_Positional_Scan_142 (peptide)
chain: DLRSNDFGIVGSLPR
B9: GlyRβ_Full_Positional_Scan_177 (peptide)
chain: DLRSNDFSCVGSLPR
B10: GlyRβ_Full_Positional_Scan_129 (peptide)
chain: DLRSNDYSIVGSLPR

One assay deals with T1, gephyrin E domain (gephE), recombinant.
As a reminder, the Ki is the equilibrium dissociation constant of an inhibitor or competing ligand from its target. For B1, the Ki came out at 10 µM.

The target of another assay is T2, Gephyrin E domain (gephE).
One may read the EC50 as the midpoint of the concentration-response curve. Low values mean an effect from little substance, high ones a need for much substance. Take B2: the EC50 is 198 µM.
Still for that read-out and setting: with B3 the figure was 255 µM; with B4, 107 µM.
The same measure, in the same setting: then B5, with 380 µM.
On the same count and under the same terms, then B6, with 228 µM.
In turn, B7 yielded an EC50 of 268 µM.
B8 gave an EC50 of 505 µM.
The same measure, in the same setting: with B9 the figure was 118 µM.
As for B10, the EC50 was determined as 2200 µM.

The values above are taken from PMC7753147 (2020).
